In PMC9479004, “Cloning and characterization of a novel functional organic anion transporting polypeptide 3A1 isoform highly expressed in the human brain and testis” (Frontiers in Pharmacology, 2022):

B1: OATP3A1_V3 (Homo sapiens; E294D) (protein)
chain: MQGKKPGGSSGGGRSGELQGDEAQRNKKKKKKVSCFSNIKIFLVSECALMLAQGTVGAYLVSVLTTLERRFNLQSADVGVIASSFEIGNLALILFVSYFGARGHRPRLIGCGGIVMALGALLSALPEFLTHQYKYEAGEIRWGAEGRDVCAANGSGGDEGPDPDLICRNRTATNMMYLLLIGAQVLLGIGATPVQPLGVSYIDDHVRRKDSSLYIGILFTMLVFGPACGFILGSFCTKIYVDAVFIDTSNLDITPDDPRWIGAWWGGFLLCGALLFFSSLLMFGFPQSLPPHSDPAMESEQAMLSEREYERPKPSNGVLRHPLEPDSSASCFQQLRVIPKVTKHLLSNPVFTCIILAACMEIAVVAGFAAFLGKYLEQQFNLTTSSANQLLGMTAIPCACLGIFLGGLLVKKLSLSALGAIRMAMLVNLVSTACYVSFLFLGCDTGPVAGVTVPYGNSTAPGSALDPYSPCNNNCECQTDSFTPVCGADGITYLSACFAGCNSTNLTGCACLTTVPAENATVVPGKCPSPGCQEAFLTFLCVMCICSLIGAMAQTPSVIILIRTVSPELKSYALGVLFLLLRLLGFIPPPLIFGAGIDSTCLFWSTFCGEQGACVLYDNVVYRYLYVSIAIALKSFAFILYTTTWQCLRKNYKRYIKNHEGGLSTTSEPDRIQNKERMTSCGRVLEATCAAGPQSLL
notes: full-length ORF from brain RNA, 697 residues, E294D polymorphism (rs1517618), untagged, lentiviral overexpression in HEK-293; C-terminal peptide (C)VLEATCAAGPQSLL
B2: OATP3A1_V1 (Homo sapiens; E294D) (protein)
chain: MQGKKPGGSSGGGRSGELQGDEAQRNKKKKKKVSCFSNIKIFLVSECALMLAQGTVGAYLVSVLTTLERRFNLQSADVGVIASSFEIGNLALILFVSYFGARGHRPRLIGCGGIVMALGALLSALPEFLTHQYKYEAGEIRWGAEGRDVCAANGSGGDEGPDPDLICRNRTATNMMYLLLIGAQVLLGIGATPVQPLGVSYIDDHVRRKDSSLYIGILFTMLVFGPACGFILGSFCTKIYVDAVFIDTSNLDITPDDPRWIGAWWGGFLLCGALLFFSSLLMFGFPQSLPPHSDPAMESEQAMLSEREYERPKPSNGVLRHPLEPDSSASCFQQLRVIPKVTKHLLSNPVFTCIILAACMEIAVVAGFAAFLGKYLEQQFNLTTSSANQLLGMTAIPCACLGIFLGGLLVKKLSLSALGAIRMAMLVNLVSTACYVSFLFLGCDTGPVAGVTVPYGNSTAPGSALDPYSPCNNNCECQTDSFTPVCGADGITYLSACFAGCNSTNLTGCACLTTVPAENATVVPGKCPSPGCQEAFLTFLCVMCICSLIGAMAQTPSVIILIRTVSPELKSYALGVLFLLLRLLGFIPPPLIFGAGIDSTCLFWSTFCGEQGACVLYDNVVYRYLYVSIAIALKSFAFILYTTTWQCLRKNYKRYIKNHEGGLSTSEFFASTLTLDNLGRDPVPANQTHRTKFIYNLEDHEWCENMESVL
notes: full-length ORF from brain RNA, 710 residues, E294D polymorphism (rs1517618), untagged, lentiviral overexpression in HEK-293
B3: OATP3A1_V2 (Homo sapiens; E294D) (protein)
chain: MQGKKPGGSSGGGRSGELQGDEAQRNKKKKKKVSCFSNIKIFLVSECALMLAQGTVGAYLVSVLTTLERRFNLQSADVGVIASSFEIGNLALILFVSYFGARGHRPRLIGCGGIVMALGALLSALPEFLTHQYKYEAGEIRWGAEGRDVCAANGSGGDEGPDPDLICRNRTATNMMYLLLIGAQVLLGIGATPVQPLGVSYIDDHVRRKDSSLYIGILFTMLVFGPACGFILGSFCTKIYVDAVFIDTSNLDITPDDPRWIGAWWGGFLLCGALLFFSSLLMFGFPQSLPPHSDPAMESEQAMLSEREYERPKPSNGVLRHPLEPDSSASCFQQLRVIPKVTKHLLSNPVFTCIILAACMEIAVVAGFAAFLGKYLEQQFNLTTSSANQLLGMTAIPCACLGIFLGGLLVKKLSLSALGAIRMAMLVNLVSTACYVSFLFLGCDTGPVAGVTVPYGNSTAPGSALDPYSPCNNNCECQTDSFTPVCGADGITYLSACFAGCNSTNLTGCACLTTVPAENATVVPGKCPSPGCQEAFLTFLCVMCICSLIGAMAQTPSVIILIRTVSPELKSYALGVLFLLLRLLGFIPPPLIFGAGIDSTCLFWSTFCGEQGACVLYDNVVYRYLYVSIAIALKSFAFILYTTTWQCLRKNYKRYIKNHEGGLSTSTEYQDIETEKTCPESHSPSEDSFVRS
notes: full-length ORF from brain RNA, 692 residues, E294D polymorphism (rs1517618), untagged, lentiviral overexpression in HEK-293

Substrate: CCN(CC)c1ccc2cc(/C=C/c3cc[n+](CCCN=[N+]=[N-])cc3S(=O)(=O)[O-])c(=O)oc2c1
Assay: fluorescent dye uptake by flow cytometry, HEK-293 overexpressing cells
Assay type: cell-based, Homo sapiens
Conditions: pH 7.4, 37 °C, 10 min, 5-400 µM ACPS, mock-subtracted

Protein	Km
B1	35 µM
B2	37.7 µM
B3	31.7 µM
